Test results reported in paper PMC3776355.

Target: Ero1-α(WT), recombinant (human) (UniProt Q96HE7)
Assay: SPR

Sequence of UniProt Q96HE7 (Q96HE7 24-468): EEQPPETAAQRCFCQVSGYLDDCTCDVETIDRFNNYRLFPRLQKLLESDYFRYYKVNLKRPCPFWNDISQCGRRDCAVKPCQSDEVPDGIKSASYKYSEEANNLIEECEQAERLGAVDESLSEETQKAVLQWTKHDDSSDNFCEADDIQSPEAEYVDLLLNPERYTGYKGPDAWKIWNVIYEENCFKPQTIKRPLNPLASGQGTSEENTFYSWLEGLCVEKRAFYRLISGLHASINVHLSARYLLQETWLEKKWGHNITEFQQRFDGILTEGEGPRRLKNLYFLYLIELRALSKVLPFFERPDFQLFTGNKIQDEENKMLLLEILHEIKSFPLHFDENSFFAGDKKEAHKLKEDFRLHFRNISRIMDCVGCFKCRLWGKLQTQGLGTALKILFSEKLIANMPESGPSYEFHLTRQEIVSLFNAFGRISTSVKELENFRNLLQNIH

- Kd: 1700 nM
Substance: PDI, recombinant (wild type) (from UniProt P07237 18-508) (enzyme)
